Reference: US5849261
Values joined by “and” are separate entries in the source; they are usually repeats but may differ in a detail not shown here. Equal entries are not always repeated. No end group written: not given here.

B1: ReO-complexed P916 (peptide)
peptide: HSDAVFTDNYTRLRKQMAVKKYLNSILNGGC-NH2
modifications: also: non-radioactive ReO complexed to the chelating moiety
B2: ReO-complexed P917 (peptide)
peptide: HSDAVFTDNYTRLRKQMAVKKYLNSILNC
modifications: C-terminal C(BAT): S-(N6,N9-bis(2-mercapto-2-methylpropyl)-6,9-diazanonan-1-yl)cysteine; C-terminal amide; non-radioactive ReO complexed to the chelating moiety
B3: ReO-complexed P887 (peptide)
peptide: HSDAVFTDNYTRLRKQMAVKKYLNSILNKGC
modifications: (ε-K): lysine 29 linked through its ε-amino group; C-terminal amide; non-radioactive ReO complexed to the chelating moiety
B4: Vasoactive intestinal peptide (VIP) (peptide)
peptide: HSDAVFTDNYTRLRKQMAVKKYLNSILN-NH2
B5: ReO-complexed P915 (peptide)
peptide: AGCHSDAVFTDNYTRLRKQMAVKKYLNSILN-NH2
modifications: also: non-radioactive ReO complexed to the chelating moiety
B6: P916 (peptide)
peptide: HSDAVFTDNYTRLRKQMAVKKYLNSILNGGC-NH2
B7: P887 (peptide)
peptide: B3 peptide
modifications: (ε-K): lysine 29 linked through its ε-amino group to the carboxyl group of the preceding residue; C-terminal amide
B8: P915 (peptide)
peptide: AGCHSDAVFTDNYTRLRKQMAVKKYLNSILN-NH2
B9: P917 (peptide)
peptide: HSDAVFTDNYTRLRKQMAVKKYLNSILNC
modifications: C-terminal C(BAT): S-(N6,N9-bis(2-mercapto-2-methylpropyl)-6,9-diazanonan-1-yl)cysteine; C-terminal amide

Each binder was assayed against VIP receptor on human cells (human) (assay: competition with 125I-VIP on human PMNCs).

| Binder | IC50 |
| --- | --- |
| B1 | 6.5 nM |
| B2 | 2.7 nM |
| B3 | 6 nM |
| B4 | 5.5 nM |
| B5 | 7.5 nM |

Each binder was assayed against VIP receptor on human cells (human) (assay: competition with 125I-VIP on COLO320 cells).

| Binder | IC50 |
| --- | --- |
| B1 | 4 nM |
| B2 | 2 nM |
| B3 | 6 nM |
| B4 | 1.5 nM |
| B5 | 6.7 nM |

The binders below were run against VIP receptor on human cells (human) (assay: competition with 125I-VIP on PANC1 cells).

| Binder | IC50 |
| --- | --- |
| B1 | 12.5 nM |
| B2 | 3.7 nM |
| B3 | > 10 nM |
| B4 | 4.2 nM |
| B5 | 14 nM |

These binders were tested against VIP receptor on human cells (human) (assay: competition with 125I-VIP on HT29 cells).

| Binder | IC50 |
| --- | --- |
| B1 | 8.5 nM |
| B2 | 2.2 nM |
| B3 | 6.6 nM |
| B4 | 1.2 nM |
| B5 | 7 nM |

What follows are binders tested against VIP receptor on human cells (human) (assay: competition with 125I-VIP on human platelets).

| Binder | IC50 |
| --- | --- |
| B1 | 3 nM |
| B2 | 0.8 nM |
| B3 | 6 nM |
| B4 | 4 nM |
| B5 | 4.5 nM |

What follows are binders tested against VIP receptor on human cells (human) (assay: competition with 125I-VIP on HMC1 cells).

| Binder | IC50 |
| --- | --- |
| B1 | 7 nM |
| B2 | 7 nM |
| B3 | 8.5 nM |
| B4 | 7 nM |
| B5 | 15 nM |

What follows are binders tested against VIP receptor of guinea pig lung membranes (guinea pig) (assay: competition with 0.01 nM 125I-VIP, guinea pig lung membranes).

| Binder | IC50 | Ki | % inhibition @ 0.01 µM |
| --- | --- | --- | --- |
| B1 | 20 nM | – | – |
| B2 | 6.9 nM | 6.7 nM | – |
| B6 | < 10 nM | – | 79% |
| B3 | 20 nM | – | – |
| B7 | < 10 nM | – | 68% |
| B8 | 50 nM | – | – |
| B5 | < 10 nM and > 1 nM | – | – |
| B9 | < 10 nM | – | 83% |

These binders were tested against VIP receptor on human cells (human) (assay: competition with 125I-VIP on KU812 cells).

| Binder | IC50 |
| --- | --- |
| B2 | 1 nM |
| B3 | 5.2 nM |
| B4 | 0.8 nM |
